Legend:
[1] = target: human CD33 on cells (human) (UniProt P20138); test: cell-based or functional assay
[2] = target: human CD123 on cells (human) (UniProt P26951); test: cell-based or functional assay
Chain of human CD123 on cells (human) (P26951 19-378 limits assumed): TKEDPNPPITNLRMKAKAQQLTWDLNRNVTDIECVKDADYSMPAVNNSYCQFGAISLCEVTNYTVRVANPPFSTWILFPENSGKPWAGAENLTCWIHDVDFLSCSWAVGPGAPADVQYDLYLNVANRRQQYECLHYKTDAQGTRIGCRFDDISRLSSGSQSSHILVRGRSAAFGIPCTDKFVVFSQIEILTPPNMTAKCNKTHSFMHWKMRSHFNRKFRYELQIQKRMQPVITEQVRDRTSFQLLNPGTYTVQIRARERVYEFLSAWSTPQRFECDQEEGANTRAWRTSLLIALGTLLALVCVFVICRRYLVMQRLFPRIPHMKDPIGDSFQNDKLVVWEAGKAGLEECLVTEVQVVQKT

Chain of human CD33 on cells (human) (P20138 18-364): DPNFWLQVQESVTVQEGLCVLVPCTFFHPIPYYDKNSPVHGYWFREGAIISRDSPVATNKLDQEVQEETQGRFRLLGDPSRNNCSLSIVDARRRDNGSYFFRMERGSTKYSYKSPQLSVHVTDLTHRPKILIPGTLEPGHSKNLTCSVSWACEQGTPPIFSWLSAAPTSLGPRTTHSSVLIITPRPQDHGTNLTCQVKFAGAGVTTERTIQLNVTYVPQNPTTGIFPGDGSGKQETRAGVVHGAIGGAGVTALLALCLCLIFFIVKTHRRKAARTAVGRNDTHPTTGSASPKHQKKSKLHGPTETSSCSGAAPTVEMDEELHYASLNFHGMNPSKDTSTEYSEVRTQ

| Substance | % Lysis, human T cell mediated U-937 cell killing [1] [%] | EC50 (M), flow cytometry based human T cell mediated U-937 cell killing, E:T 10:1 [1] [M] | % Lysis, human T cell mediated KG-1a cell killing [2] [%] | EC50 (M), flow cytometry based human T cell mediated KG-1a cell killing, E:T 10:1 [2] [M] |
| --- | --- | --- | --- | --- |
| CD123/CD3 DART MGD006 (bispecific antibody) | 13 | 8.9e-13 | 58 | 3e-12 |
| CD33/CD3 BiTE AMG 330 (bispecific antibody) | 55 | 1.1e-11 | 15 | 8.7e-12 |

From US20240092919A1
